From patent US20170073395A1 (Pfizer, published 2017)

Tests used:
[1] = molecular target: T1, RAGE (cognate target of the anti-RAGE antibodies; species not stated at the place) (Homo sapiens (Human), UniProt Q15109 23-342); assay: HTRF epitope competition, IgG titrated; competitor parental IgG (Par-RAGE)
T1 construct: not shown: Carrier or tag of the soluble construct

[2] = molecular target: T2, mTRKB (mouse, UniProt P15209 32-429, limits assumed); assay: Biacore specificity assay: IgG immobilised (about 300 RU), antigen injected at 500 nM
T2 construct: Non-target panel protein
Procedure: (§1) Biacore specificity analyses were performed using the T-200 biosensor, series S CM5 chips, an amine-coupling kit, 10 mM sodium acetate immobilization buffer at pH 5.0, 10× HBS-P running buffer and NaOH for regeneration (GE Healthcare). A predefined ligand (IgG) immobilization program was set up to immobilize approximately 300 Response Units (RU) on the flow cell for each IgG to be tested. For Anti-RAGE and anti-A33, a panel of fully-purified recombinant target and non-target antigens were diluted in HBS-P running buffer to a final concentration of 500 nM. Four groups of antigens were examined, including: cell membrane proteins (mTRKB, hTRKB, mEGFR, hEGFR, hFceR1, hIL-21R, mICAM1, mICAM2, hICAM1, hCD33, hLAMP-1, hLOX-1, and), soluble signaling molecules (mTNFa, hVEGF, hCXCL13) and albumins (BSA, HSA and MSA). These proteins were injected at 50 μl/min for 3 min, followed by a 5 sec pulse of 20 mM NaOH for regeneration of the chip surface. For pTau, a series of pTau-derived phosphorylated and non-phosphorylated peptides were flowed, as in Shih et al.³. All sensorgrams were analyzed using the Biacore T-200 evaluation software.

[3] = molecular target: T3, hTRKB (human, UniProt Q16620 32-430, limits assumed); assay: as above
T3 construct: Non-target panel protein
Procedure: as §1

[4] = molecular target: T4, hFceR1 (human, UniProt P12319 26-205); assay: as above
T4 construct: Non-target panel protein
T4 sequence (alpha): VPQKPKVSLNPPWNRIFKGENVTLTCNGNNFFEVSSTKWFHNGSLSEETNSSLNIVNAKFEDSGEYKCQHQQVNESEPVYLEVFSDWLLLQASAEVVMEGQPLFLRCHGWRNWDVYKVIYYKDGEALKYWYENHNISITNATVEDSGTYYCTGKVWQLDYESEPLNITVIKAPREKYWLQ
Procedure: as §1

[5] = molecular target: T5, hIL-21R (human, UniProt Q9HBE5 20-232, limits assumed); assay: as above
T5 construct: Non-target panel protein
Procedure: as §1

[6] = molecular target: T6, mICAM1 (mouse, UniProt P13597 28-485, limits assumed); assay: as above
T6 construct: Non-target panel protein
Procedure: as §1

[7] = molecular target: T7, mICAM2 (mouse, UniProt P35330 23-222, limits assumed); assay: as above
T7 construct: Non-target panel protein
T7 sequence (looked up): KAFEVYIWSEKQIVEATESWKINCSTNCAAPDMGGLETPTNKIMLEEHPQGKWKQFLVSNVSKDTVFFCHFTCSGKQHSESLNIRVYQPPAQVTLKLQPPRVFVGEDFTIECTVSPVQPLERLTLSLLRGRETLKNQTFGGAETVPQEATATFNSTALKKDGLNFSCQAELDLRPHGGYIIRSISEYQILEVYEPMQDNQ
Procedure: as §1

[8] = molecular target: T8, hCD33 (human, UniProt P20138 18-259, limits assumed); assay: as above
T8 construct: Non-target panel protein
Procedure: as §1

[9] = molecular target: T9, hLAMP-1 (human, UniProt P11279 29-382, limits assumed); assay: as above
T9 construct: Non-target panel protein
T9 sequence (looked up): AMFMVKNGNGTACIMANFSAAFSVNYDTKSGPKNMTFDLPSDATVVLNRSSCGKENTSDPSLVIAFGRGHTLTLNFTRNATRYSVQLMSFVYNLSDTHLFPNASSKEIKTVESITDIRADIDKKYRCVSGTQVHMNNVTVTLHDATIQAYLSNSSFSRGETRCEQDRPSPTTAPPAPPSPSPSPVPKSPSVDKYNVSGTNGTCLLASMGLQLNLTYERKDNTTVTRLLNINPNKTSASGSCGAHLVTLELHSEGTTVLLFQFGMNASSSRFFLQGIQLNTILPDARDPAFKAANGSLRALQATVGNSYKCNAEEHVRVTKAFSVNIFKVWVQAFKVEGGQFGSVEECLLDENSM
Procedure: as §1

[10] = molecular target: T10, mTNFa (mouse, UniProt P06804 80-235); assay: as above
T10 construct: Non-target panel protein
T10 sequence (looked up): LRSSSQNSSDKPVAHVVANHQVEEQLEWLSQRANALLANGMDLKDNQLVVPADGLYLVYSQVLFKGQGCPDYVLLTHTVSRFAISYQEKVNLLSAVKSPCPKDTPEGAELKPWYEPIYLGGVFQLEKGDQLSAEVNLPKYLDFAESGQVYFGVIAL
Procedure: as §1

[11] = molecular target: T11, hVEGF (human, UniProt P15692-4 27-191, limits assumed); assay: as above
T11 construct: Non-target panel protein
Procedure: as §1

[12] = molecular target: T12, hCXCL13 (human, UniProt O43927 23-109); assay: as above
T12 construct: Non-target panel protein
T12 sequence (looked up): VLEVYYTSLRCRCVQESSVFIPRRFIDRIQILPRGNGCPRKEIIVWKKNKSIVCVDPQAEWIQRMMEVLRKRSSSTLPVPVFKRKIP
Procedure: as §1

[13] = molecular target: T13, HSA (UniProt P02768 25-609); assay: as above
T13 construct: Non-target panel protein (albumins)
Procedure: as §1

[14] = molecular target: T14, MSA (UniProt P07724 25-608); assay: as above
T14 construct: Non-target panel protein (albumins)
Procedure: as §1

T11 sequence (P15692 other isoform, or with tags, fused parts or gaps limits assumed): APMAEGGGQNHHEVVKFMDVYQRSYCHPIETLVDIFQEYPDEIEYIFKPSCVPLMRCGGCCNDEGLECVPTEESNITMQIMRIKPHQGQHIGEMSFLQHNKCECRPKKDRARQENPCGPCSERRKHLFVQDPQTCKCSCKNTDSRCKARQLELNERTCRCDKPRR
T1 sequence (Q15109 23-342 limits assumed): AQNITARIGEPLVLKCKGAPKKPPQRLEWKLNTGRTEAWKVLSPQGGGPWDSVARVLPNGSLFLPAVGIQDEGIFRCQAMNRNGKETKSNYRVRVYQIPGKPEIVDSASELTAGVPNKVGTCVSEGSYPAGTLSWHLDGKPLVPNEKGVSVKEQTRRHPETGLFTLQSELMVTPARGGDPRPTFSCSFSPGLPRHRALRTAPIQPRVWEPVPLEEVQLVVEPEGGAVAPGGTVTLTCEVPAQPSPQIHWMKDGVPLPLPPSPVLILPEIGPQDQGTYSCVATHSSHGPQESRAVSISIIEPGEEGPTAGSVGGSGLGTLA
T8 sequence (P20138 18-259 limits assumed): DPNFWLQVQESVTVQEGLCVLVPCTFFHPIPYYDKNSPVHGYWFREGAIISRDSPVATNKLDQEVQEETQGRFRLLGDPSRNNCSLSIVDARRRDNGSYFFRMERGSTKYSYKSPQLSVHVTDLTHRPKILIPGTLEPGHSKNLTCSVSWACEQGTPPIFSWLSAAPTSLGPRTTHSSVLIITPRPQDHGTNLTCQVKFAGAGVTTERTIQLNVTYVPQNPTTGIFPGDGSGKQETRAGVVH
T2 sequence (P15209 32-429 limits assumed): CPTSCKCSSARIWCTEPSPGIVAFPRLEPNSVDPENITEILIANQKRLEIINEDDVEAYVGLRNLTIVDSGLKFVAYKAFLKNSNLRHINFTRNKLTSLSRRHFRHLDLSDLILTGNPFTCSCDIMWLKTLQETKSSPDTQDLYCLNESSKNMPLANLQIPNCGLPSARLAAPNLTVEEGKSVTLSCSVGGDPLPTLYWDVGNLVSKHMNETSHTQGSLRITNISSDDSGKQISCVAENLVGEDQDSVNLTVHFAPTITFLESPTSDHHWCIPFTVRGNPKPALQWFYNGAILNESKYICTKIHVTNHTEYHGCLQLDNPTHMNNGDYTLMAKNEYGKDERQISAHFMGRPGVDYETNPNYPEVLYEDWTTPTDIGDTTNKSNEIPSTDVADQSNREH
T13 sequence (P02768 25-609): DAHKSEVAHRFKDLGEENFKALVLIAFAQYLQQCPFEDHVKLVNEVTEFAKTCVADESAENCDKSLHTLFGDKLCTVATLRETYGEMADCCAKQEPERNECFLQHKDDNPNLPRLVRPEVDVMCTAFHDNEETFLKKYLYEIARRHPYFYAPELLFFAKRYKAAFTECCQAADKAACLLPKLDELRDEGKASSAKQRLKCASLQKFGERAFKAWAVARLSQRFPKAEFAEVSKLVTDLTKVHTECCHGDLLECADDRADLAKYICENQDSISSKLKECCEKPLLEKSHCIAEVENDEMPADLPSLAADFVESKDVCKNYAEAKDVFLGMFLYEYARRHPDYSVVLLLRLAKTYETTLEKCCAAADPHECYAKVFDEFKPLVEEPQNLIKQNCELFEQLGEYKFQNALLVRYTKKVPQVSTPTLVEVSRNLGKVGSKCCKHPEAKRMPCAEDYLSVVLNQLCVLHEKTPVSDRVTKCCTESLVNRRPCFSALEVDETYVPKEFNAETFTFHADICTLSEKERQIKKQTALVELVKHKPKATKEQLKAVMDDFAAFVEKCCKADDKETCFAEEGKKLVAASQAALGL
T3 sequence (Q16620 32-430 limits assumed): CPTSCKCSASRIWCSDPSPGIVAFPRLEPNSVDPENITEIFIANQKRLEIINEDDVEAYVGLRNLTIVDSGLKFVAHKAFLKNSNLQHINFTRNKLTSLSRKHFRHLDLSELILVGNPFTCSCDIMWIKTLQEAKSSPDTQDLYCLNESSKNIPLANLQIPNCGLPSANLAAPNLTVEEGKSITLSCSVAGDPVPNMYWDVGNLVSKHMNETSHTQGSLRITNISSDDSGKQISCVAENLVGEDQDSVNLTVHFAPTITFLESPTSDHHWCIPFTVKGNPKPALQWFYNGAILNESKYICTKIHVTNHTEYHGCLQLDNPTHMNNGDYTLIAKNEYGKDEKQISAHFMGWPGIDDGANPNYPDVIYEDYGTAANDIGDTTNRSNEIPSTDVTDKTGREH
T6 sequence (P13597 28-485 limits assumed): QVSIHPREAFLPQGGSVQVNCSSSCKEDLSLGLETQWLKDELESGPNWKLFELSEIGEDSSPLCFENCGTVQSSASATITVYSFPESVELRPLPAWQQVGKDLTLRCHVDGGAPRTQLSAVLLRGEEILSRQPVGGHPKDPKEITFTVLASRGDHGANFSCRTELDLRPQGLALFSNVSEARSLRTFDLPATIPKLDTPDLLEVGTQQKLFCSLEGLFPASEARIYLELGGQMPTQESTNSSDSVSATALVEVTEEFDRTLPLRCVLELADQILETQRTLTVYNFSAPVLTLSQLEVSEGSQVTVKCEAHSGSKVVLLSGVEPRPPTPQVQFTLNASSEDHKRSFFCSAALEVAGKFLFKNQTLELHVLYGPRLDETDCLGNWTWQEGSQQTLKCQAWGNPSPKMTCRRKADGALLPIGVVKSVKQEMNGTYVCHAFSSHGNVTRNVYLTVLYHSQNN
T5 sequence (Q9HBE5 20-232 limits assumed): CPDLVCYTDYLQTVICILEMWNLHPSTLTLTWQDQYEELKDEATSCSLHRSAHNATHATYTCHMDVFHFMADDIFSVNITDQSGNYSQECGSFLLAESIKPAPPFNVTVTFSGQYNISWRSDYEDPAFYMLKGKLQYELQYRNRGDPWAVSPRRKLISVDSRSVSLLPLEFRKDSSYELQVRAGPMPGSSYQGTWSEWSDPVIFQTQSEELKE

B1: C7-ABS-RAGE IgG (human IgG1) (antibody, V domains shown)
VH: EVQLVESGGGLVQPGGSLRLSCAASGFTFSSYWMSWVRQAPGKGLEWVASIDQDGSNKYYPDSVKGRFTISRDNAKNSLYLQMNSLRAEDTAVYYCARGGDITTGLDYWGQGTLVTVSS
VL: DIQMTQSPSSLSASVGDRVTITCRASQSIGSYLNWYQQKPGKAPKLLIYRASSLASGVPSRFSGSGSGTDFTLTISSLQPEDFATYYCLEFDEHPLTFGGGTKVEIK
notes: Human IgG1 format
**Q.** What does the source list for B1?
**A.** IC50 [1]: 5.8 nM; binding result [2]: no binding (tested: 500 nM); binding result [3]: no binding (tested: 500 nM); binding result [4]: no binding (tested: 500 nM); binding result [5]: no binding (tested: 500 nM); binding result [6]: no binding (tested: 500 nM); binding result [7]: no binding (tested: 500 nM); binding result [8]: no binding (tested: 500 nM); binding result [9]: no binding (tested: 500 nM); binding result [10]: no binding (tested: 500 nM); binding result [11]: no binding (tested: 500 nM); binding result [12]: no binding (tested: 500 nM); binding result [13]: no binding (tested: 500 nM); binding result [14]: no binding (tested: 500 nM)
